In this test the target is T1, His-Flag-Smurf1 (UniProt Q9HCE7-2 1-731).
T1 construct: Smurf1; printed length 731 (HECT domain residues 374–731, catalytic C699); also called SMAD Specific E3 Ubiquitin Protein Ligase 1; source: E. coli, purified
Briefly: pull-down; GST pull-down: GST fusion and His-tagged partner both purified from E. coli; 4 °C overnight, washed with PBS. The note with it: both partners purified.

T1 sequence (Q9HCE7 other isoform, or with tags, fused parts or gaps): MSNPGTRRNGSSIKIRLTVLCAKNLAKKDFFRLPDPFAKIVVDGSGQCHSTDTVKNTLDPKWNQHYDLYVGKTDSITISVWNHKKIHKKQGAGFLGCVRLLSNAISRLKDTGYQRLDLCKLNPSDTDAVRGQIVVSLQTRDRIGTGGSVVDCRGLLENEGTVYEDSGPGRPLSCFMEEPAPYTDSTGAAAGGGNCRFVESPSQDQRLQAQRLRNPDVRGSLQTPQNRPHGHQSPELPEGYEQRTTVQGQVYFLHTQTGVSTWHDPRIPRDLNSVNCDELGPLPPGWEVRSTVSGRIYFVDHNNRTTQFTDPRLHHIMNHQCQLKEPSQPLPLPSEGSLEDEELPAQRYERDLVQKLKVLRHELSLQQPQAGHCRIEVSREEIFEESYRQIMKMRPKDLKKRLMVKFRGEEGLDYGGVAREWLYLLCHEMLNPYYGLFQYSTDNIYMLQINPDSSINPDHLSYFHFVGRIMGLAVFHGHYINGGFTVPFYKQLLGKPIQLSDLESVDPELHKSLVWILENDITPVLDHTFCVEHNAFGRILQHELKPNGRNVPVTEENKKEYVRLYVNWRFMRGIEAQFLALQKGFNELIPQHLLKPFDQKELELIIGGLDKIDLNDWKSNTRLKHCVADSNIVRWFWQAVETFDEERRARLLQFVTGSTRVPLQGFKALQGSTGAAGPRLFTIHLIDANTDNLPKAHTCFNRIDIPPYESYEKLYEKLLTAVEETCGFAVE

B1: GST-TFEB (natural protein, UniProt P19484 1-476, looked up)
chain: MASRIGLRMQLMREQAQQEEQRERMQQQAVMHYMQQQQQQQQQQLGGPPTPAINTPVHFQSPPPVPGEVLKVQSYLENPTSYHLQQSQHQKVREYLSETYGNKFAAHISPAQGSPKPPPAASPGVRAGHVLSSSAGNSAPNSPMAMLHIGSNPERELDDVIDNIMRLDDVLGYINPEMQMPNTLPLSSSHLNVYSSDPQVTASLVGVTSSSCPADLTQKRELTDAESRALAKERQKKDNHNLIERRRRFNINDRIKELGMLIPKANDLDVRWNKGTILKASVDYIRRMQKDLQKSRELENHSRRLEMTNKQLWLRIQELEMQARVHGLPTTSPSGMNMAELAQQVVKQELPSEEGPGEALMLGAEVPDPEPLPALPPQAPLPLPTQPPSPFHHLDFSHSLSFGGREDEGPPGYPEPLAPGHGSPFPSLSKKDLDLMLLDDSLLPLASDPLLSTMSPEASKASSRRSSFSMEEGDVL
notes: TFEB, transcription factor EB; source: E. coli, purified
Take B1: the binding result is reported as “binds”.

B2: GST-FLCN (natural protein, UniProt Q8NFG4 1-579, looked up)
chain: MNAIVALCHFCELHGPRTLFCTEVLHAPLPQGDGNEDSPGQGEQAEEEEGGIQMNSRMRAHSPAEGASVESSSPGPKKSDMCEGCRSLAAGHPGYISHDKETSIKYVSHQHPSHPQLFSIVRQACVRSLSCEVCPGREGPIFFGDEQHGFVFSHTFFIKDSLARGFQRWYSIITIMMDRIYLINSWPFLLGKVRGIIDELQGKALKVFEAEQFGCPQRAQRMNTAFTPFLHQRNGNAARSLTSLTSDDNLWACLHTSFAWLLKACGSRLTEKLLEGAPTEDTLVQMEKLADLEEESESWDNSEAEEEEKAPVLPESTEGRELTQGPAESSSLSGCGSWQPRKLPVFKSLRHMRQVLGAPSFRMLAWHVLMGNQVIWKSRDVDLVQSAFEVLRTMLPVGCVRIIPYSSQYEEAYRCNFLGLSPHVQIPPHVLSSEFAVIVEVHAAARSTLHPVGCEDDQSLSKYEFVVTSGSPVAADRVGPTILNKIEAALTNQNLSVDVVDQCLVCLKEEWMNKVKVLFKFTKVDSRPKEDTQKLLSILGASEEDNVKLLKFWMTGLSKTYKSHLMSTVRSPTASESRN
notes: FLCN, folliculin; source: E. coli, purified
Regarding B2, the binding result is listed as “binds”.
